Test results from patent publication US8497352B2, “Use of Wnt5-α peptide derivates for the treatment of melanoma and gastric cancer” (Wntresearch AB, priority 2008, dated 2013).

Tests used:
PKC = assay: MARCKS phosphorylation (PKC activity) in A2058 cells, Western blot; format: cell-based, human; settings: rWnt-5a 0.2 μg/ml
Description: The cells were either directly lysed in 1× Laemmli buffer containing DTT and boiled for 10 min, or lysed in buffer containing 50 mM Tris-HCl (pH 7.5), 1% Triton X-100, 100 mM NaCl, 10 mM MgCl2, 20% glycerol, 1 mM Na3VO4, and protease inhibitors (20 μg/ml aprotinin, 1 μg/ml leupeptin, 2.5 mM benzamidine, and 2 mM pefabloc). Cell treated with lysis buffer were centrifuged at 15,000 rpm for 5 min at 4° C. The protein content in each sample was determined and adjusted to ensure equal loading of protein in each lane. Thereafter, 50 mM DTT and 5× concentrated Laemmli buffer was added and the samples boiled for 5 min. The samples were separated by SDS polyacrylamide gel electrophoresis and subsequently transferred to PVDF membranes. For immunoblotting the membranes were blocked in PBS supplemented with 0.2% Tween 20 and 1% non-fat milk for Wnt-5a or 3% non-fat milk as for all other antibodies for 1 h. […] Finally, the Ab-antigen complexes were detected using enhanced chemiluminescence. […]
In the present study the level of PKC auto-phosphorylation (Weeraratna et al., 2002, Dissanayake et al., 2007) was not estimated since its relation to PKC kinase activity is unclear. Instead the effects of Wnt-5a and Box5 on the phosphorylation of the endogenous PKC substrate MARCKS were analyzed as a direct means of estimating the activity level of PKC in the melanoma cells. […]

[1] = system: Wnt-5a-induced Ca^2+ signaling; assay: Determination of cytosolic free calcium levels (fura-2) in A2058 cells; format: cell-based, human; settings: 0.1 μg/ml Wnt-5a
Description: Cells grown on a glass cover slip were incubated with 4 μM fura-2/AM in culture medium for 30 minutes at 37° C. (Dejmek et al., 2006). After fura-2 loading of the cells, the cover slips were washed and mounted in a specially designed chamber to which was added a calcium-containing medium (136 mM NaCl, 4.7 mM KCl, 1.2 mM MgSO4, 1.1 mM CaCl2, 1.2 KH2PO4, 5 mM NaHCO3, 5.5 mM glucose and 20 mM Hepes, pH 7.4). The chamber was then placed in a system consisting of a NIKON Diaphot microscope connected to a Photon Technology International (PTI) imaging system. The cells were first allowed to rest for 10 minutes before any stimulation was performed. Fura-2 fluorescence was then recorded continuously from the cells before and after the stimulations with either Wnt-5a, endothelin-1 or charbacol (as indicated in the legend to FIG. 8) using an excitation wavelength rapidly alternating between 340 and 380 nm, while the emission wavelength was set at 510 nm. The fluorescence intensity ratios (340/380 nm) were subsequently calculated and analyzed using the PTI Image Master Software. Statistical analysis—The Student's t-test for unpaired samples was used to analyze differences in the experiments, where *=p<0.05, **=p<0.01, and ***=p<0.001

B1: Wnt-5a: human recombinant Wnt-5a protein from R&D Systems (protein, UniProt P41221 62-380, looked up)
Protein Wnt-5a: IIGAQPLCSQLAGLSQGQKKLCHLYQDHMQYIGEGAKTGIKECQYQFRHRRWNCSTVDNTSVFGRVMQIGSRETAFTYAVSAAGVVNAMSRACREGELSTCGCSRAARPKDLPRDWLWGGCGDNIDYGYRFAKEFVDARERERIHAKGSYESARILMNLHNNEAGRRTVYNLADVACKCHGVSGSCSLKTCWLQLADFRKVGDALKEKYDSAAAMRLNSRGKLVQVNSRFNSPTTQDLVYIDPSPDYCVRNESTGSLGTQGRLCNKTSEGMDGCELMCCGRGYDQFKTVQTERCHCKFHWCCYVKCKKCTEIVDQFVCK
- Effect on phosphorylation of MARCKS (PKC): increased phosphorylation
- Cytosolic Ca^2+ signal in A2058 cells [1]: triggers a rapid cytosolic Ca^2+ signal
